Source: publication PMC6045628 (Scientific Reports, 2018)

B1: E. coli glutamine synthetase fused to mEGFP (GlnA-mEGFP) (enzyme, UniProt P0A9C5 1-469, looked up)
chain: MSAEHVLTMLNEHEVKFVDLRFTDTKGKEQHVTIPAHQVNAEFFEEGKMFDGSSIGGWKGINESDMVLMPDASTAVIDPFFADSTLIIRCDILEPGTLQGYDRDPRSIAKRAEDYLRSTGIADTVLFGPEPEFFLFDDIRFGSSISGSHVAIDDIEGAWNSSTQYEGGNKGHRPAVKGGYFPVPPVDSAQDIRSEMCLVMEQMGLVVEAHHHEVATAGQNEVATRFNTMTKKADEIQIYKYVVHNVAHRFGKTATFMPKPMFGDNGSGMHCHMSLSKNGVNLFAGDKYAGLSEQALYYIGGVIKHAKAINALANPTTNSYKRLVPGYEAPVMLAYSARNRSASIRIPVVSSPKARRIEVRFPDPAANPYLCFAALLMAGLDGIKNKIHPGEAMDKNLYDLPPEEAKEIPQVAGSLEEALNELDLDREFLKAGGVFTDEAIDAYIALRREEDDRVRMTPHPVEFELYYSV
notes: also called GlnA complex; copies: 12

How the values were obtained:
[1] = target: Influenza A virus hemagglutinin fused to mEGFP (HA-wt-mEGFP) (Influenza A virus)
[2] = target: the molecule itself; experiment: Number&Brightness analysis (fluorescence fluctuation spectroscopy, molecular brightness); living U2OS cells expressing the mEGFP fusion; brightness normalised to 1xmEGFP and corrected for non-fluorescent mEGFP with pf = 0.72 from 2xmEGFP

Molecule | stoichiometry N [1] | stoichiometry N [2]
Influenza A virus hemagglutinin fused to mEGFP (HA-wt-mEGFP) (natural protein) | 3.17 | –
B1 | – | 11.9
